In US20060270832A1:

Biological target: human noradrenaline transporter (hNET) (human) (UniProt P23975)
Assay: cell-based or functional assay

human noradrenaline transporter (hNET) (human), sequence (P23975 whole entry): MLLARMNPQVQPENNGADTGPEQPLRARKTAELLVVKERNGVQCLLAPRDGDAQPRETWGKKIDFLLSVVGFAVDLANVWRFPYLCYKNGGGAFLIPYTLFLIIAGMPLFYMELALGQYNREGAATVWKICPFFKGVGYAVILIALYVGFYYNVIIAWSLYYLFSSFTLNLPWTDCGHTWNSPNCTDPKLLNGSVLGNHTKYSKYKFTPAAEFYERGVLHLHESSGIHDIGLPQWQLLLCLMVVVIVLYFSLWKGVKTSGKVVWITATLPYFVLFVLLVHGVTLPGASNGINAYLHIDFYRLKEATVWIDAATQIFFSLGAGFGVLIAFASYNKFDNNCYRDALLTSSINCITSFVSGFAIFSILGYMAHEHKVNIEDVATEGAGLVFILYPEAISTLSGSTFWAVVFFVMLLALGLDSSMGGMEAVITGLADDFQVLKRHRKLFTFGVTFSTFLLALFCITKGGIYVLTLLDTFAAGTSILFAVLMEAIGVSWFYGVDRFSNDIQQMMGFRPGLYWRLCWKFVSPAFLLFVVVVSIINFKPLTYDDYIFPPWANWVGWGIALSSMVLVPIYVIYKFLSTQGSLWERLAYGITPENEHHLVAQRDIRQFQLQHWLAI

## χ-MrIA (peptide)
  Av IC50, inhibition of NA uptake via hNET (log M (unit not given)): -6.3
